In the supplement of paper PMC12764529:
± gives the half width of the 95% confidence interval.

Legend:
[1] = folding stability dG unfold from trypsin proteolysis; higher = more stable
Method in brief: (§1)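 Digests were run with trypsin and chymotrypsin at 11 concentrations in threefold dilutions, plus a no-protease condition, on designed mini-proteins in a PA-tagged cDNA display construct. The mini-proteins were under 80 residues, had no cysteine, and were kept only when AlphaFold2 dimer inter-PAE was above 15. After sequencing, Bayesian fitting of the counts gave K50, from which unfolding free energy was derived against a sequence-predicted unfolded-state K50 and a shared folded-state K50, per protease or combined.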

[2] = folding stability dG unfold from chymotrypsin proteolysis; higher = more stable
Method in brief: as §1

[3] = folding stability dG unfold (combined trypsin and chymotrypsin); higher = more stable
Method in brief: as §1

Row | Sequence | folding stability dG unfold [1] [kcal/mol] | folding stability dG unfold [2] [kcal/mol] | folding stability dG unfold [3] [kcal/mol]
1 | SAGGMTVTVKVKPDEYVIVEIENPVLDSTLTYVVPFNSPMTVTLPLPPDYKVKKITVVSPKKVSKELLSAGG [r13_119_JUSTAS] | 1.22 ± 0.013 | 2.05 ± 0.059 | 1.78 ± 0.059
2 | SMYYLVTITVTIRKDGKPVSVTPIYLAVPPEKAEEVAAEIKKSHPDLEVTITMEVTEVSEDDEEVKELLKSA [r9_782_JUSTAS] | 1.92 ± 0.13 | 3.36 ± 0.085 | 2.79 ± 0.19
3 | SAGGSAGGSASIGGGPTGHSYKITLPNGTEKFLVMDPSTLKELIEKLGVKEVEVKDIGPLQSAGGSAGGSAG [r3_141_JUSTAS] | 0.842 ± 0.077 | 0.0184 ± 0.27 | 0.482 ± 0.15
4 | SAGGSMVVTETLVETLTETLTFPDGTPVTVTVPVTVTVEVYLPEPPAPPPLPFSRLAEELGDPALVSAGGSA [r2_340_JUSTAS] | -0.838 ± 0.26 | -0.661 ± 0.43 | -0.623 ± 0.15
5 | SAGGSAGGSAGLEALKKALEALPPGEERELEIEVEVDGKLYRFRIRVEKTEDGEYKATIELESAGGSAGGSA [r18_493_TrROS_Hall] | 4.56 ± 0.34 | 4.88 ± 0.084 | 4.76 ± 0.16
6 | SAGGKPVRILVIAGKGIRPLEIPVDEDKTVEAEFKFGDHTIRIRVSPKEKKIEVEAPSNFKIIILEPSAGGS [r16_761_TrMRF] | 2.96 ± 0.092 | 3.14 ± 0.042 | 2.98 ± 0.12
7 | SMPVTITITLHKDPNSDVIPVRLEMTDSAGNPIGEREIDYTTTEEEARERAVALAEEIAAATGYTIEFGESA [r9_31_JUSTAS] | 1.27 ± 0.069 | 0.266 ± 0.22 | 0.8 ± 0.11
8 | SAGGSAGGEIPPNIKKIETLPDDGWLMVKVDSPKDIREFFEDHGWEIKDVEEEGNTIHIPIKPKSAGGSAGG [r6_381_TrROS] | 0.648 ± 0.072 | 0.893 ± 0.24 | 0.79 ± 0.25
9 | SAGGMLIIRIEIEIEKNGKKEKKEILIVAKTEEEAKKAAEKIAKEKGLKIKKIEILPFKSLEELKKALSAGG [r13_949_TrROS_Hall] | 2.12 ± 0.061 | 3.45 ± 0.037 | 3.11 ± 0.089
10 | SAKGTLELTFPTTKVTVEVEKVDPVNNKVYARAVFPNGFVVDAVFDPKTGKVYVEVKEVKPTKDGGYSLSAG [r14_466_TrMRF] | 1.24 ± 0.046 | 1.46 ± 0.11 | 1.44 ± 0.15
11 | SAGGMKIIEIEDRGPGKFAGPETVLEALRKALPGIPIEVLDYDPEKHVIRIRVPEEAVPRIVEAFKSSAGGS [r8_235_TrMRF] | 3.68 ± 0.098 | 3.96 ± 0.056 | 3.88 ± 0.057
12 | SKPTLTLKLTVVVKDENGEKKTVTLTIPVSEEELEKLLKEIAKELGLKDVKVVKIEKNKNGFIKITVEVKSA [r9_1101_TrROS_Hall] | 2.16 ± 0.12 | 2.36 ± 0.033 | 2.36 ± 0.21
13 | SAGGSAGGSAGGEKIVLKVKPGDTVEVNGKTIKVPPGALITFDKKTKKLTIEPLSPEDLSAGGSAGGSAGGS [r10_353_TrROS_Hall] | 0.954 ± 0.058 | 1.14 ± 0.26 | 1.11 ± 0.19
14 | SAGGSAGGSAGKIYIVKLPNETIEIEFEGTEEEAIDFAIKELEKLFPKPIPKDDIIILGGSAGGSAGGSAGG [r11_1028_TrMRF] | 1.76 ± 0.074 | 1.65 ± 0.043 | 1.71 ± 0.14
15 | SAGGSAGGSAGMVETVSTTTSVETGPDSTRYTTTTTTVLVTDSSGTPIATTTTTTTTVTASAGGSAGGSAGG [r17_139_JUSTAS] | 1.45 ± 0.051 | 0.314 ± 0.17 | 0.986 ± 0.056
16 | SAGGGSSYTLLSESTSTDPATGATLTTTTYRAPDGTIYYDSTLTAPDGTTTGTATAVDPDGTPVTIALSAGG [r13_573_JUSTAS] | 1.32 ± 0.035 | 1.39 ± 0.12 | 1.41 ± 0.1
17 | MEAEELATTLAAEALAPLPRPFEIDPENNEVRVPGGGELAELPIRVVLVDEDGEIVEERIVPVRIRAEEPGS [r1_318_TrMRF] | -0.362 ± 0.14 | 0.878 ± 0.083 | 0.542 ± 0.11
18 | SAGGSAGGSAGGAPVEVKTAVFRHPDNPRWYVLRVARLPGTGRLVVVLFDPETGEFAVFPSAGGSAGGSAGG [r7_923_TrMRF] | 0.755 ± 0.087 | 2.18 ± 0.16 | 1.67 ± 0.16
19 | SAGGSAGGSKPGEVYEVKVKIKDKETGKYYEVKVKVYRLEDGTLLIEVDGKIFEVPVKDIEIESAGGSAGGS [r12_790_TrROS_Hall] | 3.25 ± 0.2 | 4.2 ± 0.082 | 3.99 ± 0.11
20 | SAGGSAGGSMFEEEEIEIERPDGTTIKVKVEILPDGTRVLTITDPKEGKTTTVTLSPNEEILLSAGGSAGGS [r20_45_JUSTAS] | 2.15 ± 0.12 | 0.464 ± 0.049 | 1.6 ± 0.12
21 | SAGGSAGGSAGGKKTINVEIVKIEVTKNKKTNEYTVKIYIKDTGKTITLTVKPGDIIKISAGGSAGGSAGGS [r10_819_TrROS_Hall] | 1.42 ± 0.064 | 3.28 ± 0.1 | 3.1 ± 0.21

Row | Sequence | folding stability dG unfold [1] [kcal/mol] | folding stability dG unfold [2] [kcal/mol] | folding stability dG unfold [3] [kcal/mol]
22 | SAGGLDAVLAELAKKPPGVTVELPVELPDGSRVVLTATWPAETSSPVITVKYYDPNRPEAVEEETFTVTSAG [r5_35_JUSTAS] | 1.34 ± 0.08 | 1.47 ± 0.049 | 1.46 ± 0.12
23 | SAGGSAGGSAGGPITSIDTSGPVITVTATTPGGSVTMDVPPDLTLEEVEALLKANPELLNSAGGSAGGSAGG [r7_373_JUSTAS] | 1.41 ± 0.072 | -0.265 ± 0.12 | 0.788 ± 0.087
24 | SAGGGLALRLEVETERVEREVFDADGRLVAREEVEVRRVRLELVPLPPAPPPPTVTVRPGDPRDPRLRSAGG [r13_508_TrROS_Hall] | 1.53 ± 0.13 | 3.18 ± 0.04 | 2.69 ± 0.13
25 | SAGGSAGGSSSSTLISVEPSPGIVTVERPLSLDPVPVVERRIMTVSPSSSLSVTETSVFPVSLLSAGGSAGG [r6_970_JUSTAS] | 0.818 ± 0.095 | 0.932 ± 0.24 | 1.02 ± 0.15
26 | SAGGKPKIRIKIEIYTPEKKETIELEFDSVEEALEALASLPGVKVEKLPDGTIYIKIPNLIIKIEIEPSAGG [r13_143_TrROS_Hall] | 3.19 ± 0.2 | 3.57 ± 0.1 | 3.42 ± 0.3
27 | SAGGPEVEAERFGDTVLVRITLLDPETGEPYEFLAIATRRPDGTVTVTIIHPDGRPSTIPLPLLPLASAGGS [r16_154_TrMRF] | 2.63 ± 0.16 | 1.88 ± 0.039 | 2.26 ± 0.14
28 | SAGGSAGGSAGGPKGYFRIRIEIPNGQKREIWFPPDDAEEWVKSLGIPEENVKITKIEPYSAGGSAGGSAGG [r7_211_TrROS] | 0.506 ± 0.15 | 0.874 ± 0.27 | 0.868 ± 0.18
29 | SAGGKILIYPGSIEEAIEALKANPNTTVLVISPDGTLIEITVEELGPGPFKIDIKVIPLLPPLKPDEASAGG [r13_56_TrMRF] | 1.6 ± 0.043 | 2.212 ± 0.021 | 1.97 ± 0.069
30 | SAGGMPPGDPVKVNVQIRIRMRDPNGKKPELTVPIEYNVQSKEDARDAILKIAKELADEYGYEIEVFSAGGS [r8_149_TrROS] | 0.711 ± 0.041 | 1.52 ± 0.12 | 1.31 ± 0.24
31 | MPNLKPALLVIPMKVESIEEAEEKVLAFAEELAEAFPNIKKIEVEILEIDEENGIVIAKITVEAEDSALDAS [r1_52_TrMRF] | 2.12 ± 0.1 | 2.34 ± 0.051 | 2.13 ± 0.19
32 | SAGPPPVKVTVTADYVIEDGKPIVTYTLTFPDGSTTTVTSDPETLVEWLKQHYPDIDVLNFNSGTAPAASAG [r5_25_JUSTAS] | 2.78 ± 0.068 | 4.05 ± 0.047 | 3.77 ± 0.13
33 | SAGGMANPEDFKVVESLEFRDPDNGKPFTIEIAKPPDNNVPIMIWHNGSMYMFVIDGDKIEVFPIKNSAGGS [r16_711_TrROS] | 1.5 ± 0.04 | 1.88 ± 0.1 | 1.75 ± 0.091
34 | SAGGSAGGMTTTEISTKKLPDGTWATTVTTTTITATNGVPVTTSTPTTIINPGDPSVAIAAALSSAGGSAGG [r6_129_JUSTAS] | 0.209 ± 0.013 | -1 ± 0.29 | -0.173 ± 0.057
35 | SAGGSAGGSAGKEIIKNIPKGVKVLKIEPLPGKSGTYVKIEVEFPDPNGVKHRLTFIAPESAGGSAGGSAGG [r17_140_TrMRF] | 0.67 ± 0.15 | 1.34 ± 0.14 | 1.16 ± 0.23
36 | KTVHIPINGMPLDEMLDMARDALREDPDEGKTITIWVPGNPEWLENLGFDKIEPYKDPERPYMRIKFKVPPS [r1_467_TrROS] | 0.298 ± 0.17 | 1.24 ± 0.22 | 0.816 ± 0.14
37 | SAGGSAGGSAGGNYVVRIEHNGQPIMEQPFPGSLEDAKDYVKEIAQFFPPDKVKIEVYKFSAGGSAGGSAGG [r7_81_TrROS] | -0.0528 ± 0.057 | 0.458 ± 0.19 | 0.292 ± 0.095
38 | SAGSAAIKALLEKHPKPEVIEVTRLPGSGTLVIKVDDEDHVVPTPPGGFTETLTVDENGNVLSVEPHPASAG [r5_329_JUSTAS] | 1.79 ± 0.11 | 1.65 ± 0.064 | 1.74 ± 0.14
39 | SAGGGMQAVSPVKTETKTSPDGTTTTTTTTRYPDGTVVVPVTETSPTGGAKKVATTTVSLGPPSPALASAGG [r13_494_JUSTAS] | -0.315 ± 0.085 | 1.07 ± 0.033 | 0.599 ± 0.093
40 | SAGMKTYTITVPASEAEEAAEKAAEEIKKELGLPDSDTVEVTVTSYDPKTGTVTITITVTRPLPGGLSLSAG [r5_537_JUSTAS] | 2.74 ± 0.13 | 1.76 ± 0.084 | 2.19 ± 0.2
41 | SAGGSAGGSAGGLEIELPNARIRIEELEGEPRRIRVRVEFFPPDGGRLSAEAEFDILPDLSAGGSAGGSAGG [r17_184_TrMRF] | 2.66 ± 0.056 | 2.5 ± 0.08 | 2.57 ± 0.092
42 | SAGGPNLYIFIKIEHKGQTVTFMYPVPPGNLEKLVDEIASMGFPEIKIEEIYIFPPNGWIPVTVRLPSAGGS [r8_219_TrROS] | 2.88 ± 0.13 | 3.71 ± 0.041 | 3.4 ± 0.14
